Patent publication US20220395553A1 (COHBAR, published 2022)
Square brackets hold non-standard residues; d marks the D form. Ends that are not written are not given here.

Assays:
[1] = target: T1, CXCR4 on cultured U937 and Jurkat cells (human, UniProt P61073 1-352); experiment: cell-based or functional assay
[2] = target: T1, CXCR4 on cultured U937 and Jurkat cells; experiment: cell-based or functional assay; remark: listed apart in the source
[3] = target: T2, SNAP tagged-CXC4 receptor labeled with terbium (Tag-lite CXCR4 cells, HEK293) (UniProt P61073 1-352, SNAP tag labeled with terbium fluorescent dye); experiment: HTRF competition on Tag-lite CXCR4 HEK293 cells; competitor labelled CXCL12
T2 construct: whole, on cells; Bought frozen cells (PerkinElmer-CisBio), HEK293 transiently expressing the receptor; also called terbium labeled CXCR receptor
Protocol: Peptides were initially prepared as 1 mM stock in H₂O. […] Following the manufacture's protocol, a frozen aliquot of Tag-lite CXCR4 cells was thawed and immediately seeded onto 384-well plates in TLB. […] The plates were covered in aluminum foil and left at room temperature for 3 hours. Following the 3 hour incubation period, the plates were removed from the incubator and fluorescence measured using a Cytation 1 plate reader using a HTRF filter cube ([…]; BioTek; Winooski, Vt.).

[4] = target: T3, ProLink tagged human CXCR4 (C2C12 CXCR4 β-Arrestin cell line) (human, UniProt P61073 1-352); experiment: cell-based or functional assay
T3 sequence (P61073 whole entry): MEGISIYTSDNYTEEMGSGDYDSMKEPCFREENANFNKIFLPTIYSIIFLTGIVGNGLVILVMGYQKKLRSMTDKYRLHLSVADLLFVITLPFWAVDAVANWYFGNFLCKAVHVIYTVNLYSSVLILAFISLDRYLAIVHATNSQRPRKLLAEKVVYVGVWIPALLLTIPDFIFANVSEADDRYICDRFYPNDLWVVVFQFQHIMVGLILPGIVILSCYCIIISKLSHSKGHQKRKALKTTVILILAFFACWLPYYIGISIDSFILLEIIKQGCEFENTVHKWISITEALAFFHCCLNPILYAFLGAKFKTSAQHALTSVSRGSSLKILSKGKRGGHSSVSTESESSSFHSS

[5] = target: T3, ProLink tagged human CXCR4 (C2C12 CXCR4 …); experiment: cell-based or functional assay; remark: listed apart in the source
[6] = target: T1, CXCR4 on cultured U937 and Jurkat cells; experiment: cell-based or functional assay; remark: listed apart in the source
[7] = target: T2, SNAP tagged-CXC4 receptor labeled with …; experiment: HTRF competition on Tag-lite CXCR4 HEK293 cells; competitor labelled CXCL12; remark: listed apart in the source
Protocol: Peptides were initially prepared as 1 mM stock in H₂O and tested at a final concentration of 400 nM. Following the manufacture's protocol, a frozen aliquot of Tag-lite CXCR4 cells was thawed and immediately seeded onto 384-well plates in TLB. Immediately following the addition of cells, 400 nM peptide (final concentration) in TLB was added to the appropriate well. […] The plates were covered in aluminum foil and left at room temperature for 3 hours. Following the 3 hour incubation period, the plates were removed from the incubator and fluorescence measured using a Cytation 1 plate reader using a HTRF filter cube ([…]; BioTek; Winooski, Vt.).

[8] = target: T4, ProLink tagged human CXCR4 (C2C12 CXCR4 β-Arrestin cell line) (human, UniProt P61073 1-352); experiment: cell-based or functional assay; remark: listed apart in the source
T4 sequence (P61073 whole entry): as above

[9] = target: T4, ProLink tagged human CXCR4 (C2C12 CXCR4 …); experiment: cell-based or functional assay; remark: listed apart in the source

T1 sequence (P61073 whole entry): as above
T2 sequence (P61073 whole entry): as above

Row | Binder | Percent Inhibition of CXCR4/CXCL12 Induced p-MEK (100 nM Test Article) [1] [%] | Percent Inhibition of CXCR4/CXCL12 Induced p-MEK (1 µM Test Article) [1] [%] | Percent Inhibition of CXCL12 Mediated Migration (1.1 µM Test Article; Jurkat cells) [2] [%] | IC50 [3] [nM] | IC50 for Inhibition of CXCR4 (β-Arrestin recruitment) [4] [nM] | IC50 for Inhibition of CXCR4 Activation (β-Arrestin recruitment) [5] [nM] | Percent Inhibition of CXCL12 Mediated Migration (U937 cells) [6] [%] | Percent Inhibition of CXCR4/CXCL12 Binding (400 nM peptide) [7] [%] | IC50 for Inhibition of CXCR4 Activation (β-Arrestin recruitment) [8] [nM] | IC50 for Inhibition of CXCR4 (β-Arrestin recruitment) [9] [nM]
1 | LERYHHSVRSSLRPYTK [SEQ ID NO: 4] | 40 | 76 | 77 | 6 | 2.28 | 4 | 98 | 88 |  | 
2 | LERYHHSVRSSLRPFTK [SEQ ID NO: 60] | 34 | 82 | 33 | 17 |  |  |  | 60 | 4 | 
3 | MLRRYHHSVRSSLRPYTK [SEQ ID NO: 2] | -1 | 28 | 4 | 375 |  |  | 58 |  | 11 | 
4 | LRRYHHSVRSSLRPYTK [SEQ ID NO: 3] | 29 | 91 | 66 | 497 | 0.51 | 5 | 101 |  |  | 
5 | LERYHHTVRSSLRPYTK [SEQ ID NO: 39] | 38 | 95 | 77 | 8 |  |  |  | 87 | 3 | 
6 | LERYHHSVRSSLRPYT [SEQ ID NO: 18] | 45 | 78 | 66 | 18 |  |  |  | 57 | 24 | 
7 | LERYHHSVRSTLRPYTK [SEQ ID NO: 74] | 48 | 93 | 61 | 6 |  |  |  | 88 | 5 | 
8 | LRRYHHSVRTSLRPYTK [SEQ ID NO: 70] | 57 | 93 | 21 | 336 |  |  |  | 11 | 2 | 
9 | LERYHHSVRSSLRPYSK [SEQ ID NO: 75] | 60 | 100 | 81 | 11 |  |  |  | 81 | 4 | 
10 | LDRYHHSVRSSLRPYTK [SEQ ID NO: 7] | 60 | 96 | 52 | 5 |  |  |  | 89 | 1.5 | 
11 | LRRYHHSVRSSLRGYTK [SEQ ID NO: 79] | 46 | 100 | 36 | 670 |  |  |  | 12 | 3 | 
12 | LERYHHSVRTSLRPYTK [SEQ ID NO: 73] | 47 | 96 | 82 | 10 |  |  |  | 87 | 4 | 
13 | LERFHHSVRSSLRPYTK [SEQ ID NO: 54] | 46 | 92 | 54 | 8 |  |  |  | 79 | 3 | 
14 | LDRYHHS[dA]RSSLRPYTK [SEQ ID NO: 8] | 32 | 88 | 94 | 9 |  |  |  | 86 | 3 | 
15 | LERYHHSVRSSLRPYTK-NH2 [SEQ ID NO: 56] | 69 | 98 | 83 |  |  | 11 |  |  |  | 
16 | LERYHHS[dA]RSSLRPYT [SEQ ID NO: 5] | -20 | 24 | 46 | 33 |  |  | 86 |  | 244 | 121
17 | LRRYHHSVRSSLRPYTK-NH2 [SEQ ID NO: 16] | 74 | 100 | 21 |  |  | 8 |  |  |  | 
